{"source": "the nanobody polyreactivity screen of Harvey et al. (2022)"}
{"experiment": "yeast display, Sf9 membrane polyspecificity reagent, FACS + sequencing; frameworks hold sequencing errors", "procedure,_shortened": "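Nanobodies came from a synthetic yeast display library in Saccharomyces cerevisiae BJ5465, induced with galactose for 36–48 hours and stained for 1 hour at 4 °C with 10% biotinylated, detergent-solubilized Sf9 membrane reagent. Cells were enriched on streptavidin microbeads and then FACS-sorted, with low and high (top ~1%) gates set on anti-HA fluorescence for expression and streptavidin fluorescence for reagent binding. Each polyreactivity label reflects the gate a clone came from. Genes were amplified by colony PCR, sequenced by MiSeq 2 × 250 and filtered by CDR length.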"}
{"sequence": "QVQLVDSGGGIVQAGGSLRLSCAASGRIFKLYAMGRYRQAPGKERELVAAISKSGGNTYADSVKGRFTISRDNAKNSVYLQMNSLKPEDTAVYYCAATVQSTSDPFDYWGQGTQVTVSS", "polyreactivity (PSR sort gate)": "low polyreactivity"}
{"sequence": "QVQLVDSGGGLDQAGGSLRLSCSASGIIFRGNAMGWYRQAPGKEREFVAAIALRGSRSYYADSVKGRFTISRDNAKNTVYLQMISLKPEDTAVYYCAARYYSEPNAYYYWGQGTQLTVSS", "polyreactivity (PSR sort gate)": "high polyreactivity"}
{"sequence": "QVQLVDSGGGLVHAGGSLRLSCAASGSIFGANTMGWYRPAPGKERELVAGITSRARTYYADSVKGRFTISRDNANNNVYLQMNSLKPEDTAVYYCAAKYAWRRYGYWGQGTQVTVSS", "polyreactivity (PSR sort gate)": "high polyreactivity"}
{"sequence": "QVQLVDSGGGLVHAGGSLRLSCAASGSSFTFYAMGWYRQAPGKERELVARISITGGSTYYADSVKGRFTISRDNAKNTVYLHMNSLKPEDTAVYYCAARYYGEHYDYWGQGTQVTVSS", "polyreactivity (PSR sort gate)": "low polyreactivity"}
{"sequence": "QVQLVDSGGGLVHAGGSLRLSCASSGSIFNYYAMGCYRQPPGKVRELVAAISYRTGSTYYADSVKGRFTISRDNAKNTVYLQMTSLKPEDTSVYYCAADTRYGYGYWGQGTQVTVSS", "polyreactivity (PSR sort gate)": "high polyreactivity"}
{"sequence": "QVQLVDSGGGLVHAGGSLRLSCHASGRTFRGNAMGWYRQAPGKESELVAAITRRTASTYYADSVKGRFTISRDNAKNTVYLQMNSLKPEDTAVYDCAADSYMKRPYYAGYYYWGQGTQVTVSS", "polyreactivity (PSR sort gate)": "high polyreactivity"}
{"sequence": "QVQLVDSGGGLVKAGCSLRLSCAASGRIFNSYAMGLYRQAPGKETELVAAITWSGDRTNYADSVKGRFTISRDNANNTVYVQMNSLKPEDTAVYYCAADRVRSVRYGYWGKGTQVTVSS", "polyreactivity (PSR sort gate)": "low polyreactivity"}
{"sequence": "QVQLVDSGGGLVKAGGSLRLSCAASGSTFAYYAMGWYRQAPGKERELVAAISWNGGSTYYADSVKGRFTISRDNAKNTVYLQMNSLKPEDTAVYYCAAEVYDYTYVVTFLYDYWGQGTQVTVSS", "polyreactivity (PSR sort gate)": "high polyreactivity"}
{"sequence": "QVQLVDSGGGLVQAGCSLRISCAASGSIYTTYAMGWYRQAPGKERELVAALTRSGGRTYYADSVKGRFTISRDNAKYTVYLQMTSLKPEDTAVDDCNAYGYRTWWDDFKLDYWGQGTQVTVSS", "polyreactivity (PSR sort gate)": "high polyreactivity"}
{"sequence": "QVQLVDSGGGLVQAGGRLRLTCAASGSTFGPNAMGWYSPAPGKERELVADISGGSTNYADSVKGRFTISRDNAKNTVYLQMKSLKPEDTAVYSCATDDHVEPVRRLYGYWGQGTQVTVSS", "polyreactivity (PSR sort gate)": "low polyreactivity"}
{"sequence": "QVQLVDSGGGLVQAGGSHRLSCAASGIIFPTYDMGWYRPAPGKERELVAAITWSTGSTTYADSVKGRFTISRDNAKNTVYLQMNSLKPEDTAVYYCNKDSEGSGGEFDDWGQGTQVTVSS", "polyreactivity (PSR sort gate)": "low polyreactivity"}
{"sequence": "QVQLVDSGGGLVQAGGSLGLSCAASGRSFTFNAMGWYRQAPGKERELVAAISSRGDGTYYADSVKGRFTISRDNAKNNVYLQMNSLKPEDTAVYYCARYPDDYYDWGYDYWGQGTQVTVSS", "polyreactivity (PSR sort gate)": "low polyreactivity"}
{"sequence": "QVQLVDSGGGLVQAGGSLRFSCAASGSIFPVNVMGWYRQAPGKERELVADITSTGTYYADSVKGRFTISRDNAKNTDYLQMNSLKPEDTAVYYCAKAGGSWYRRYYYWGQGTQVTVSS", "polyreactivity (PSR sort gate)": "high polyreactivity"}
{"sequence": "QVQLVDSGGGLVQAGGSLRISCAASGFIFSSYAMGWSRQAPAKERELVAAISSRGGSTYYADSVKGRFTISRDNAKNTVYLQMNSLKPEDTAVYYCNAYLSPYVQTSRYDDDYWGQGTQVTVSS", "polyreactivity (PSR sort gate)": "high polyreactivity"}
{"sequence": "QVQLVDSGGGLVQAGGSLRISCAASGSIFPSNAMGWYRQAPGKERELVAAINRDGITNYADSVKGRFTISRDNAKNTVYLQMNSLKPEDTAVYYCAAEFAGQWWEYGYWGQGTQVTESS", "polyreactivity (PSR sort gate)": "low polyreactivity"}
{"sequence": "QVQLVDSGGGLVQAGGSLRITCAASGFTFTRYALGGYRQAPGKERELVAVITSTAGSTYYADSVKGRFTISRDNAKNSVYLQMNSLKAEVTAVYFCAAESLVHGDVTLEEVVAQSYDYWGQGSQVTVSS", "polyreactivity (PSR sort gate)": "low polyreactivity"}
{"sequence": "QVQLVDSGGGLVQAGGSLRLICAASGRNLYAYSMGWYRQAPWQQRELVGAITSGASTYYADSVKGRFTISRDNAKTNVYLQMKRLKPEDTAVYYCAKSVRYYKPGYDYWGQGTQVTVSS", "polyreactivity (PSR sort gate)": "low polyreactivity"}
{"sequence": "QVQLVDSGGGLVQAGGSLRLNFAASGLTFDRYGMGWYRQGPGKERELVAAIDGSGTSTYYADSVKGRFTISRDNAKNTVYLQMNSLKPEDTAVYYCAAGALSWYDYWGQGTQVTVSS", "polyreactivity (PSR sort gate)": "low polyreactivity"}
{"sequence": "QVQLVDSGGGLVQAGGSLRLRCAASGLTFYTYAMGWYRQAPGKERELVAANRWRGGRTYYADSVKGRFTISRDNAKNTVYLQMNSLKPDDTAVYYCAADYSTLYKYDYWGQGTQVTVSS", "polyreactivity (PSR sort gate)": "low polyreactivity"}
{"sequence": "QVQLVDSGGGLVQAGGSLRLSCAASGFIFDLYAMGWYRQAPGKERELVAAITTSGGTTYYADSVKGRFTISRDNAKNTVYLQMNSLIPEDTAVYFCAARRYSWYYYWGQGTQVTVSS", "polyreactivity (PSR sort gate)": "high polyreactivity"}
{"sequence": "QVQLVDSGGGLVQAGGSLRLSCAASGFIFGINAMGWYRQAPGKERELVSAISTGDRTNYADSVKRRFTISRDNAKNTVYLQMYSLKPEDTAVYYFAKDWRRNRPYEWTYDYWGQGTQVTVSS", "polyreactivity (PSR sort gate)": "low polyreactivity"}
{"sequence": "QVQLVDSGGGLVQAGGSLRLSCAASGFIFQYYAMGWYRQAPGKEMGLVAAISFSGGSTYYADSVKGRFTISRDNAKNTVYLQMNSLKPEDTAVYYCAAEVYSVGDYSGHDYYWGQGTQVTVSS", "polyreactivity (PSR sort gate)": "low polyreactivity"}
{"sequence": "QVQLVDSGGGLVQAGGSLRLSCAASGFTFFRYAMGWYRQAPGKERELVAAITSGGGRTYYADSVKGRFTISRDNAKNTVYLQMNSLNPEDTAVYYCAARVYFSFITPIKYNYWGQGTQVTVSS", "polyreactivity (PSR sort gate)": "high polyreactivity"}
{"sequence": "QVQLVDSGGGLVQAGGSLRLSCAASGFTFNGYAMGWSRPAPGKEREFVAAISSSGGSTYYADSVKGRFTISRDNAKNTVYLQMNSLKPDDTAVYYCNAVGWRKKYDYWGQGTQVTVSS", "polyreactivity (PSR sort gate)": "high polyreactivity"}
{"sequence": "QVQLVDSGGGLVQAGGSLRLSCAASGFTIPTYAMGWYRQAPGKERELVAAISGDGDSTYYADSVKGRFTISRDNAKNTVYLQMNSLKPEDTAVYYCAAEPNVYFSVFVLFPSDYWGQGTQVTVSS", "polyreactivity (PSR sort gate)": "low polyreactivity"}
{"sequence": "QVQLVDSGGGLVQAGGSLRLSCAASGITFYVNAMGWYRQAPRKERELVASISTGGSTNYADSVKGRFTISRDNAKNTVYLQMNSLKPEDTAVYYCAARVDYHPSLRDYWGQGTQVTVSS", "polyreactivity (PSR sort gate)": "low polyreactivity"}
{"sequence": "QVQLVDSGGGLVQAGGSLRLSCAASGITSHYYAMGWYRQAPGKERELVAAITSSGSTYYADSVKGRFTISRDNAKNTVYLQMNSLKPEVTAVYYCATTVWYKKAPYPDGDYWGQGTQVTVSS", "polyreactivity (PSR sort gate)": "low polyreactivity"}
{"sequence": "QVQLVDSGGGLVQAGGSLRLSCAASGLIFEVYAMGWYRQAQGKERELVAAISWRGGSTDYADSVKGRFTISRDNAKNTVYLQMNSLKPEDTAFYYCAKGYRGRTTAGNLWEFDYWGQGTQVTVSS", "polyreactivity (PSR sort gate)": "high polyreactivity"}
{"sequence": "QVQLVDSGGGLVQAGGSLRLSCAASGLIFKLNAMGWYRQAPGKERELVAAIRASTGSTYYADSVKGRFTISRDNAKNTVYLQMNSLKPEDTADYYCAVRLRWYFFLMDYWGQGTQVTVSS", "polyreactivity (PSR sort gate)": "high polyreactivity"}
{"sequence": "QVQLVDSGGGLVQAGGSLRLSCAASGLIFPYNAMGWYRQAPGKERELVAAIDSGVTTYYADSVKGRFTISRDNAKNTVYLQMNSLKPEDTAVYYCAAVGLPGPEGDSWGQGTQVTVSS", "polyreactivity (PSR sort gate)": "low polyreactivity"}
{"sequence": "QVQLVDSGGGLVQAGGSLRLSCAASGLTFYHYTMGWYRQAPGKERELVPAITKNGGSTYYADSVKGRFTISRDNAKNTVYLQMNSLKPEDSAVYYCAAYEFGLLRYYSGRSYYYWGQGTQVTVSS", "polyreactivity (PSR sort gate)": "high polyreactivity"}
{"sequence": "QVQLVDSGGGLVQAGGSLRLSCAASGNTFGINDMGWYRKAPGKERELVAAIRISGGSTYYADSVKGRFTISRDNAKNTVYLQMNSLKPEDTAVYYCAKYGPRASLYRTGRYYWGQGTQVTVSS", "polyreactivity (PSR sort gate)": "high polyreactivity"}
{"sequence": "QVQLVDSGGGLVQAGGSLRLSCAASGNTFRYYVMGWYRQAPGKERELVAASTSSGGNTYYADSVKGRFTISRDNAKNTVYLQMNSLKPEDTAVYYCAASYDINYYFSDYNYWGQGTQVTVSS", "polyreactivity (PSR sort gate)": "high polyreactivity"}
{"sequence": "QVQLVDSGGGLVQAGGSLRLSCAASGRIFGRYAMGWSRQAPGKESELVASITYRGGGTYYADSVKGRFTISRDNAKNTVYLQMNSLKPEDTAVYYCNAYFAGVLRRNYRGQGTQVTVSS", "polyreactivity (PSR sort gate)": "high polyreactivity"}
{"sequence": "QVQLVDSGGGLVQAGGSLRLSCAASGRIFIGYAMGWNRQAPWRERELVAAITSGGGTYYADSVKARFTISRDNAKNTVYLQMNSLKPEDTAVYFCAGAQRYPIKYYFWGQGTQVTVSS", "polyreactivity (PSR sort gate)": "low polyreactivity"}
{"sequence": "QVQLVDSGGGLVQAGGSLRLSCAASGRIFYAYAMGGYRQAPGKERELVARISASGGNTYYADSVKGRFTISRDNAKNSVYLQMNSLKPEDTAVYYCNKLFWYGRQYDYWGQGTQVTVSS", "polyreactivity (PSR sort gate)": "high polyreactivity"}
{"sequence": "QVQLVDSGGGLVQAGGSLRLSCAASGRIFYSNAMGWYRQAPGKVRELVAAITTSGASTYYADSVKGRFTISRDNAKNTVYLQLISMKPEDTAVYYCATYAVVYPFAMDYWGQGTQVTVSS", "polyreactivity (PSR sort gate)": "low polyreactivity"}
{"sequence": "QVQLVDSGGGLVQAGGSLRLSCAASGRIFYYYAMGWYRQAPGKERELVAAISWNGGTTYYAESVKGRFTISRDNAKNTVYLQINSLKPEDTAVYYCNAVLYRGPPGSRMDYWGQGTQVTVSS", "polyreactivity (PSR sort gate)": "high polyreactivity"}
{"sequence": "QVQLVDSGGGLVQAGGSLRLSCAASGRISSQYAMGWYRQAPGKERELVAAISTSGDRTYYADSVKGRFTISRDNAKNTVYLQMNSLKPEDTAVYYCAKDGPYTYGRDISEYWGQGTQVTVSS", "polyreactivity (PSR sort gate)": "low polyreactivity"}
{"sequence": "QVQLVDSGGGLVQAGGSLRLSCAASGRTCYTNAMGWYRQAPGKERELVAAINRSGGSTYYADSVKGRFTISRDNAKNTVYLQMNSLKPEDTAVYYCNKAFTHTKYLSPIAYEYGYWGQGTQVTVSS", "polyreactivity (PSR sort gate)": "low polyreactivity"}
{"sequence": "QVQLVDSGGGLVQAGGSLRLSCAASGRTFAFNYAMGWYRQAPGKERELVAAISSSGTRTRYADSVKGRFTISRDNAKNTVYLQMNSLKPEDTAVYYCSKRSLGIGRSNYWGQGTQVTVSS", "polyreactivity (PSR sort gate)": "high polyreactivity"}
